Experimental data: the supplement of paper PMC12042874
± gives the uncertainty stated by the source.

Assay: amyloid nucleation score (Sup35N fusion, yeast selection) (log enrichment); library NNK3; higher = more nucleation; inactive = no reads after selection
Procedure, shortened: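 Three technical output replicates were used for random libraries. Psi-negative yeast expressing peptides of 20 random codons fused to Sup35N were induced with 100 μM copper sulfate for 24 hours and grown 7 days at 30°C on medium lacking adenine and uracil, and input and output plasmid inserts were Illumina-sequenced, excluding sequences with under 100 input reads. The nucleation score is the DiMSum log enrichment of output over input reads, centred on the mode score of non-aggregating sequences.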

| Substance | amyloid nucleation score |
| --- | --- |
| WSWGTG | inactive |
| WSYREVHRRDLGLLSNGTCW | inactive |
| WSYTAKGVW | inactive |
| WTEGST | inactive |
| WTFNLFFNFRTFRLCCRKLV | 0.938 ± 0.096 |
| WTQAGQIRMRKRSR | inactive |
| WVCIW | 0.178 ± 0.72 |
| WVCLWVIVLYHIPVLNKLLS | inactive |
| WVCTYLTRFGRITGALRMDV | inactive |
| WVGGPQNQRPANWTFGMWFH | inactive |
| WVHVRPKHCTSGLVTKFANM | inactive |
| WVLDQRNSLSKCKLG | inactive |
| WVLEE | inactive |
| WVLLRWAGY | -0.611 ± 2.4 |
| WVYWRKSSILSTHRNIVKHW | inactive |
| WWMYSALGMYTDHEFACDVA | inactive |
| WWVIVGSAYVFDISIHFSSP | 1.24 ± 0.096 |
| WWVRQNVRWVLACVDFSTFS | inactive |
| WYACRIQ | 0.517 ± 0.23 |
| WYAKWKVN | inactive |
| WYGITEIP | inactive |

| Substance | amyloid nucleation score |
| --- | --- |
| WYGVSACYGWHNVAHSSRSL | 1.22 ± 0.18 |
| WYLIFGCRASWGSWR | -0.039 ± 0.61 |
| WYRHGIVEYDAIIWDESARR | inactive |
| WYRLLYKVEYNFKGWSVFVR | inactive |
| WYTIRDYRAFLSVM | inactive |
| YAFHKTDSCCVMCVRGPAPT | inactive |
| YAFLELFNFVLNLDLGVGYL | inactive |
| YAGFCPRGRSPKRG | inactive |
| YAIVGSRVVRLRSKNRRNLS | inactive |
| YALCPVRPGSQQGKLGVTFL | 0.503 ± 0.45 |
| YALMLVFERHSRAARSVGMG | inactive |
| YAMCIISIAFPLTL | inactive |
| YANCLDNIPDRVQDMYSCFS | inactive |
| YANQHSPEHQRLSSRLVGTN | inactive |
| YASYFSWEDCHG | inactive |
| YAVYRTPFVSKLAMFQLVQ | -1.04 ± 1.9 |
| YCAALGSSY | inactive |
| YCAGWFFMFSV | 0.586 ± 0.2 |
| YCFSWNHR | 0.116 ± 0.66 |
| YCKEGLQQDPIFSKFYEHLG | inactive |
| YCNMVWT | inactive |

| Substance | amyloid nucleation score |
| --- | --- |
| YCQVGINWFYGAGMKGYILS | inactive |
| YCSCNEGGLDPSLTMTL | inactive |
| YCSLMMMVYRDFFTLVNASV | inactive |
| YCWYRQMDNSRGGYYMWVS | inactive |
| YDAIVAPFSFSTLAVVITYG | inactive |
| YDCKLSRAVLRGV | inactive |
| YDCWFPHLSECLQLDTIFKA | inactive |
| YDKLSYKLPLF | inactive |
| YDLRCCTAVLFDLVESRATL | inactive |
| YDSKDF | inactive |
| YDSLFCLSSHLGWCNRALPE | 0.977 ± 0.13 |
| YDVSRDATDCRVYCCPFSRS | 1.23 ± 0.1 |
| YDWKNL | inactive |
| YELPDWSRYKQFVLLG | inactive |
| YEMIKFSKY | inactive |
| YERSRMSVWRNT | inactive |
| YFAWNRKVNYTRS | inactive |
| YFCLQNFRVFLGRYMIHNYL | inactive |
| YFFKTQISSDGTLSTYECME | inactive |
| YFGDPVLNASLVIVLHLYWL | 1.21 ± 0.078 |
| YFGYRLLAAERSSERVICFK | -0.352 ± 0.75 |

| Substance | amyloid nucleation score |
| --- | --- |
| YFIALCINSDKPPVHGVAVV | inactive |
| YFKSSFQKSLIDEVALKGWL | 0.224 ± 0.54 |
| YFLYMCALTHRWFWFKFFER | inactive |
| YFRSK | inactive |
| YFSISLLTSK | inactive |
| YFTFCDCLGQLMTRGRGCSV | inactive |
| YFVPWGFAKDRRKTHDLPAE | inactive |
| YGAFWGYSAGAVKLNENFSV | inactive |
| YGCWQRWSRQVGYFRGDKAC | inactive |
| YGDWIHATCVICSLSF | 3.39 ± 0.05 |
| YGFFKAARRMRIS | inactive |
| YGIYWSETFRNSLCKIVNIL | 0.66 ± 0.24 |
| YGMDIIWW | inactive |
| YGNFF | inactive |
| YGNGWTFWSFLWGSTNRQRT | inactive |
| YGNLFSYAVMSRDLVSWGPV | inactive |
| YGPQGVGLMGSLIAVISFIR | 1.12 ± 0.16 |
| YGRLPSWIKWFFLVVYIRVL | inactive |
